Measurements published in patent publication US20060074222A1.

Assays:
[1] = target: Pin1 (wild-type, SEQ ID NO:1) (human) (UniProt Q13526); assay: cell-based or functional assay
[2] = target: Pin1 R14A (SEQ ID NO:2) (human) (UniProt Q13526); assay: cell-based or functional assay

MALDI-TOF mass increase after PKA treatment [1]: 160 Daltons
MALDI-TOF mass increase after PKA treatment [2]: 90 Daltons
Substance: phosphokinase A (PKA) (enzyme)
